Reference: the Immune Epitope Database (IEDB)

What was measured:
[1] = molecular target: HLA-A*11:01; assay: IEDB peptide-MHC binding, purified MHC/competitive/radioactivity; ≥ and ≤ were set here for values at or beyond the usual limits of such assays; details: source organism: Mammarenavirus lassaense
[2] = molecular target: HLA-A*33:01; assay: as above
[3] = molecular target: HLA-A*31:01; assay: as above
[4] = molecular target: HLA-A*68:01; assay: IEDB peptide-MHC binding, cellular MHC/competitive/fluorescence; ≥ and ≤ were set here for values at or beyond the usual limits of such assays
[5] = molecular target: HLA-A*23:01; assay: IEDB peptide-MHC binding, purified MHC/competitive/radioactivity; ≥ and ≤ were set here for values at or beyond the usual limits of such assays; details: source organism: Vaccinia virus WR
[6] = molecular target: HLA-A*02:06; assay: as above; details: source organism: Vaccinia virus WR
[7] = molecular target: HLA-A*68:02; assay: as above; details: source organism: Vaccinia virus WR
[8] = molecular target: HLA-A*29:02; assay: as above; details: source organism: Vaccinia virus WR
[9] = molecular target: HLA-A*30:02; assay: as above; details: source organism: Vaccinia virus WR
[10] = molecular target: HLA-A*02:02; assay: as above; details: source organism: Vaccinia virus WR
[11] = molecular target: HLA-A*26:01; assay: as above; details: source organism: Vaccinia virus WR
[12] = molecular target: HLA-A*01:01; assay: as above; details: source organism: Vaccinia virus WR
[13] = molecular target: HLA-A*02:01; assay: as above; details: source organism: Vaccinia virus WR
[14] = molecular target: HLA-A*02:03; assay: as above; details: source organism: Vaccinia virus WR
[15] = molecular target: HLA-A*24:02; assay: IEDB peptide-MHC binding, cellular MHC/competitive/fluorescence; ≥ and ≤ were set here for values at or beyond the usual limits of such assays; details: source organism: Vaccinia virus WR
[16] = molecular target: HLA-B*53:01; assay: IEDB peptide-MHC binding, purified MHC/competitive/radioactivity; ≥ and ≤ were set here for values at or beyond the usual limits of such assays
[17] = molecular target: HLA-B*35:01; assay: as above
[18] = molecular target: HLA-B*54:01; assay: as above
[19] = molecular target: HLA-B*51:01; assay: IEDB peptide-MHC binding, cellular MHC/competitive/fluorescence; ≥ and ≤ were set here for values at or beyond the usual limits of such assays
[20] = molecular target: HLA-B*07:02; assay: as above
[21] = molecular target: HLA-B*40:01; assay: IEDB peptide-MHC binding, purified MHC/competitive/radioactivity; ≥ and ≤ were set here for values at or beyond the usual limits of such assays; details: source organism: Mammarenavirus guanaritoense
[22] = molecular target: HLA-B*40:02; assay: as above; details: source organism: Mammarenavirus guanaritoense
[23] = molecular target: HLA-B*44:02; assay: IEDB peptide-MHC binding, cellular MHC/competitive/fluorescence; ≥ and ≤ were set here for values at or beyond the usual limits of such assays; details: source organism: Mammarenavirus guanaritoense
[24] = molecular target: HLA-B*44:03; assay: as above; details: source organism: Mammarenavirus guanaritoense
[25] = molecular target: HLA-B*18:01; assay: as above; details: source organism: Mammarenavirus guanaritoense
[26] = molecular target: HLA-B*45:01; assay: as above; details: source organism: Mammarenavirus guanaritoense
[27] = molecular target: HLA-A*23:01; assay: as above; details: source organism: Vaccinia virus WR
[28] = molecular target: HLA-A*68:02; assay: as above; details: source organism: Vaccinia virus WR
[29] = molecular target: HLA-A*29:02; assay: as above; details: source organism: Vaccinia virus WR
[30] = molecular target: HLA-A*01:01; assay: as above; details: source organism: Vaccinia virus WR
[31] = molecular target: HLA-A*02:01; assay: as above; details: source organism: Vaccinia virus WR
[32] = molecular target: HLA-A*68:01; assay: IEDB peptide-MHC binding, purified MHC/competitive/radioactivity; ≥ and ≤ were set here for values at or beyond the usual limits of such assays
[33] = molecular target: HLA-A*11:01; assay: IEDB peptide-MHC binding, cellular MHC/competitive/fluorescence; ≥ and ≤ were set here for values at or beyond the usual limits of such assays
[34] = molecular target: HLA-A*33:01; assay: as above
[35] = molecular target: HLA-A*31:01; assay: as above
[36] = molecular target: HLA-A*03:01; assay: as above; details: source organism: Mammarenavirus choriomeningitidis
[37] = molecular target: HLA-A*03:01; assay: IEDB peptide-MHC binding, purified MHC/competitive/radioactivity; ≥ and ≤ were set here for values at or beyond the usual limits of such assays; details: source organism: Vaccinia virus WR
[38] = molecular target: HLA-B*27:05; assay: as above; details: source organism: Mammarenavirus choriomeningitidis
[39] = source organism: Mammarenavirus lassaense
[40] = source organism: Mammarenavirus machupoense
[41] = source organism: Mammarenavirus guanaritoense
[42] = source organism: Mammarenavirus choriomeningitidis
[43] = source organism: Vaccinia virus WR

ALMSIISTFH
IC50 [1]: 0.618 µM
IC50 [2, 39]: 3.61 µM
IC50 [3, 39]: 3.68 µM
IC50 [4, 39]: 23.8 µM

SQIFNIISYI
IC50 [5]: 2.38 µM
IC50 [6]: 0.023 µM
IC50 [7]: 0.048 µM
IC50 [8]: 1.15 µM
IC50 [9]: 0.671 µM
IC50 [10]: 0.062 µM
IC50 [11]: 0.397 µM
IC50 [12]: 0.801 µM
IC50 [13]: 0.111 µM
IC50 [14]: 0.181 µM
IC50 [15]: 9.51 µM

MLNNSFYYM
IC50 [16, 40]: 0.851 µM
IC50 [17, 40]: 0.501 µM
IC50 [18, 40]: 4.96 µM
IC50 [19, 40]: 6.95 µM
IC50 [20, 40]: 29.7 µM

ADKNLIKCS
IC50 [21]: 0.316 µM
IC50 [22]: 0.102 µM
IC50 [23]: ≥ 70 µM
IC50 [24]: ≥ 70 µM
IC50 [25]: ≥ 70 µM
IC50 [26]: ≥ 70 µM

NQGNILMDSI
IC50 [6]: 3.09 µM
IC50 [9]: 3.95 µM
IC50 [10]: 3.94 µM
IC50 [11]: 2.78 µM
IC50 [14]: 4.04 µM
IC50 [27]: ≥ 70 µM
IC50 [28]: 27.8 µM
IC50 [29]: 7.49 µM
IC50 [15]: 67.2 µM
IC50 [30]: 24 µM
IC50 [31]: 9.85 µM

TSFYLISIFL
IC50 [32, 39]: 1.91 µM
IC50 [33, 39]: 8.09 µM
IC50 [34, 39]: 31.1 µM
IC50 [35, 39]: ≥ 70 µM

TTSLFLHLV
IC50 [2, 41]: 2.27 µM
IC50 [3, 41]: 0.726 µM
IC50 [4, 41]: 11.1 µM
IC50 [33, 41]: 15.4 µM

MCISLSTAI
IC50 [16, 39]: 1.43 µM
IC50 [17, 39]: 0.211 µM
IC50 [18, 39]: 0.192 µM
IC50 [19, 39]: 6.76 µM
IC50 [20, 39]: 24 µM

TSAYLISIFL
IC50 [32, 42]: 1.15 µM
IC50 [2, 42]: 2.18 µM
IC50 [36]: 9.21 µM
IC50 [33, 42]: ≥ 70 µM
IC50 [35, 42]: 3.1 µM

LLTACTIFYI
IC50 [37]: 0.829 µM
IC50 [32, 43]: 4.37 µM
IC50 [3, 43]: 0.627 µM
IC50 [13]: 0.0057 µM
IC50 [33, 43]: 18.8 µM
IC50 [34, 43]: 7.39 µM

IIVLIIITSI
IC50 [38]: 1.88 µM
